Assay results reported in PMC5565208.
Like-named read-outs stand apart in the source and are kept apart here.

Tests used:
[1] = system: BifR (Burkholderia thailandensis E264); experiment: EMSA
[2] = system: BifR (Burkholderia thailandensis E264); experiment: EMSA; remark: listed apart in the source
[3] = target: BifR (biofilm regulator), MarR homologue from Burkholderia thailandensis E264 (Burkholderia thailandensis E264); experiment: SEC
[4] = target: BifR (biofilm regulator), MarR homologue from Burkholderia thailandensis E264 (Burkholderia thailandensis E264); experiment: cross-linking
[5] = target: BifR (biofilm regulator), MarR homologue from Burkholderia thailandensis E264 (Burkholderia thailandensis E264); experiment: SEC; remark: listed apart in the source

Substance	Kd [1]	Kd [2]	stoichiometry N [3]	stoichiometry N [4]	stoichiometry N [5]
355 bp ecsC-emrB operator DNA	0.9 nM	1.4 nM	–	–	–
BifR (biofilm regulator), MarR homologue from Burkholderia thailandensis E264 (natural protein)	–	–	2	2	4
